The test concerns the target T1, Myo5 SH3 (MYO5_YEAST), Q04439.
T1 chain: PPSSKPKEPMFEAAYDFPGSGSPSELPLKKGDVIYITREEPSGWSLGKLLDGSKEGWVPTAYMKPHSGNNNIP
The test can be described thus: SPOT array.
Take LEFSHYAPTAPHVQ [YLR069C 734-747]: the normalised SPOT signal, Boehringer light units (BLU); mean over the file's lines of this peptide amounted to 103.
The molecule LAKDLIVPRRPEWN [YGL099W 130-143] showed a normalised SPOT signal, Boehringer light units (BLU); mean over the file's lines of this peptide of 117000.
To LPAVFSAPIRPDIV [YBR031W 22-35] belongs 202.
As to LPAPPPPPRRGPA [YOR181W 341-353], the normalised SPOT signal, Boehringer light units (BLU); mean over the file's lines of this peptide is 43400.
LALLMTDPDAPSRT [YLR179C 73-86] showed a normalised SPOT signal, Boehringer light units (BLU); mean over the file's lines of this peptide of 178.
In turn, KWTIMPHPNRPNAA [YOL008W 138-151] registered a normalised SPOT signal, Boehringer light units (BLU); mean over the file's lines of this peptide of 429.
To LAIRLSWPPAPVTL [YDL151C 103-116] belongs 155; to LLAEHNGPKLPHIP [YKR021W 416-429], 198; to LPEELMRPKVPELL [YPL012W 957-970], 145.
As to LLISHLFPTNPEFS [YER155C 650-663], the normalised SPOT signal, Boehringer light units (BLU); mean over the file's lines of this peptide is 414.
To LEDALHVPTNPEIL [YDR416W 508-521] belongs 191; to LLLPLLLPPLPSVK [YKL147C 80-93], 6470; to LFKRLPVPAPPMDS [YNL238W 106-119], 145.
Next, LASPFHDPILPRRT [YHL028W 522-535]: 288; LPFMYLLPRFPSHI [YGR065C 182-195]: 455.
Next, LPQQHLSPLIPIAI [YGL035C 132-145]: 45.3; LLAKLPLPRDPRVA [YPR183W 188-201]: 344; KWKSLFPPFFPSDI [YCL016C 283-296]: 242.
With LLKGYIPPYKPIVK [YMR104C 608-621], the normalised SPOT signal, Boehringer light units (BLU); mean over the file's lines of this peptide turned out to be 169.
Next, LLQSLRLPTTPTER [YCL040W 391-404]: 125; LELLLSLPTGPESK [YBR172C 710-723]: 143.
Next, LLYLMTYPQQPMVK [YOR207C 724-737]: 162.

For the origin of these results see paper PMC314469, “Protein Interaction Networks by Proteome Peptide Scanning” (PLoS Biology, 2004).
